Assay results published in patent publication US20250145711A1 (Janssen / Centocor, published 2025).

T1: Human CD79b long isoform, recombinant extracellular domain (CD9W8.001) (human, UniProt P40259 29-159)
T1 construct: extracellular domain; also called hu CD79b long
T1 sequence (looked up): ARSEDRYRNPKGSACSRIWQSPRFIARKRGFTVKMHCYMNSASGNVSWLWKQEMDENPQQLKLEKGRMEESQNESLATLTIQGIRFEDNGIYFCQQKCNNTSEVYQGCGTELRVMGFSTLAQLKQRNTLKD

T2: Human CD79b short isoform, recombinant extracellular domain (CD9W7.001) (human, UniProt P40259 29-159)
T2 chain: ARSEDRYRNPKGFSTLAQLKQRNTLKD

T3: Human CD79b, endogenous on diffuse large B-cell lymphoma cell lines (human, UniProt P40259 29-229)
T3 construct: On HBL-1, OCI-LY10 and Carnaval cells, which also carry CD20; also called Igβ
T3 sequence: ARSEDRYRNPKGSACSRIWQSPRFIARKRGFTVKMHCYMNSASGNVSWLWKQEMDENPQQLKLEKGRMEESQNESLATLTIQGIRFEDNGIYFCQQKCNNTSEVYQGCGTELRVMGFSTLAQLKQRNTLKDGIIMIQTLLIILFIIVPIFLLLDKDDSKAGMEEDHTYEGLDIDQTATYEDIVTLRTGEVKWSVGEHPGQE

B1: C923B74 (other)
heavy: QVQLQQSGPGLVKPSQTLSLTCAISGDSVSSNSATWNWIRQSPSRGLEWLGRTYYRSKWYNDYTVSVKSRITINPDTSKNQFSLQLNSVTPEDTAVYYCTRVDIAFDYWGQGTLVTVSSASTKGPSVFPLAPSSKSTSGGTAALGCLVKDYFPEPVTVSWNSGALTSGVHTFPAVLQSSGLYSLSSVVTVPSSSLGTQTYICNVNHKPSNTKVDKKVEPKSCDKTHTCPPCPAPEAAGGPSVFLFPPKPKDTLMISRTPEVTCVVVSVSHEDPEVKFNWYVDGVEVHNAKTKPREEQYNSTYRVVSVLTVLHQDWLNGKEYKCKVSNKALPAPIEKTISKAKGQPREPQVYTLPPSREEMTKNQVSLSCAVKGFYPSDIAVEWESNGQPENNYKTTPPVLDSDGSFFLVSKLTVDKSRWQQGNVFSCSVMHEALHNRFTQKSLSLSPGK
light: QTVVTQPPSVSEAPRQRVTISCSGSSSNIGNHGVNWYQQLPGKAPKLLIYNDDLLPSGVSDRFSGSTSGTSGSLAISGLQSEDEADYYCAAWDDSLNGVVFGGGTKLTVLGQPKAAPSVTLFPPSSEELQANKATLVCLISDFYPGAVTVAWKADSSPVKAGVETTTPSKQSNNKYAASSYLSLTPEQWKSHRSYSCQVTHEGSTVEKTVAPTECS
chain: EIVLTQSPATLSASPGERVTLSCSASSSVSYMNWYQQKPGQAPRRWIYDSSKLASGVPARFSGSGSGRDYTLTISSLEPEDFAVYYCQQWSRNPPTFGGGTKVEIKGGSEGKSSGSGSESKSTGGSQVQLVQSGAEVKKPGSSVKVSCKASGYTFTRSTMHWVKQAPGQGLEWIGYINPSSAYTNYNQKFQGRVTLTADKSTSTAYMELSSLRSEDTAVYYCASPQVHYDYAGFPYWGQGTLVTVSSEPKSSDKTHTCPPCPAPEAAGGPSVFLFPPKPKDTLMISRTPEVTCVVVSVSHEDPEVKFNWYVDGVEVHNAKTKPREEQYNSTYRVVSVLTVLHQDWLNGKEYKCKVSNKALPAPIEKTISKAKGQPREPQVYTLPPSREEMTKNQVSLWCLVKGFYPSDIAVEWESNGQPENNYKTTPPVLDSDGSFFLYSKLTVDKSRWQQGNVFSCSVMHEALHNHYTQKSLSLSPGKGGSEGKSSGSGSESKSTGGSAIQLTQSPSSLSASVGDRVTITCRASSSVSYIHWFQQKPGKAPKPLIYATSNLASGVPSRFSGSGSGTDFTLTISSLQPEDFATYYCQQWTSNPPTFGQGTKLEIKGGSEGKSSGSGSESKSTGGSQVQLVQSGAEVKKPGSSVKVSCKASGYTFTSYNMHWVRQAPGQGLEWMGAIYPGNGDTSYAQKFQGRVTITADKSTSTAYMELSSLRSEDTAVYYCARSTYYGGDWYFNVWGQGTLVTVSS
notes: Trispecific IgG1 antibody; HC1/LC form the CD79b Fab; HC2 is CD3 scFv-Fc-linker-CD20 scFv; also called CD79bxCD20xCD3 trispecific; CD9B330-N31S / CD3B2030-N106A-scFv-LH-C20B22
B2: C923B99 (other)
heavy: QVQLQESGPGLVKPSQTLSLTCTVSGVSISNYYWSWIRQPPGKGLEWIGRISPSGRTNYNPSLKSRVTMSLDASKNQFSLKLSSVTAADTAVYYCARGEYSGTYSYSFDIWGQGTMVTVSSASTKGPSVFPLAPSSKSTSGGTAALGCLVKDYFPEPVTVSWNSGALTSGVHTFPAVLQSSGLYSLSSVVTVPSSSLGTQTYICNVNHKPSNTKVDKKVEPKSCDKTHTCPPCPAPEAAGGPSVFLFPPKPKDTLMISRTPEVTCVVVSVSHEDPEVKFNWYVDGVEVHNAKTKPREEQYNSTYRVVSVLTVLHQDWLNGKEYKCKVSNKALPAPIEKTISKAKGQPREPQVYTLPPSREEMTKNQVSLSCAVKGFYPSDIAVEWESNGQPENNYKTTPPVLDSDGSFFLVSKLTVDKSRWQQGNVFSCSVMHEALHNRFTQKSLSLSPGK
light: DIQMTQSPSSLSASVGDRVTITCRSSQSLFDSDDGNTYLDWFQQKPGQSPKLLIQTLSYRASGVPSRFSGSGSGTDFTLTISSLQPEDFATYYCMQRMEFPLTFGGGTKVEIKRTVAAPSVFIFPPSDEQLKSGTASVVCLLNNFYPREAKVQWKVDNALQSGNSQESVTEQDSKDSTYSLSSTLTLSKADYEKHKVYACEVTHQGLSSPVTKSFNRGEC
chain: EIVLTQSPATLSASPGERVTLSCSASSSVSYMNWYQQKPGQAPRRWIYDSSKLASGVPARFSGSGSGRDYTLTISSLEPEDFAVYYCQQWSRNPPTFGGGTKVEIKGGSEGKSSGSGSESKSTGGSQVQLVQSGAEVKKPGSSVKVSCKASGYTFTRSTMHWVKQAPGQGLEWIGYINPSSAYTNYNQKFQGRVTLTADKSTSTAYMELSSLRSEDTAVYYCASPQVHYDYAGFPYWGQGTLVTVSSEPKSSDKTHTCPPCPAPEAAGGPSVFLFPPKPKDTLMISRTPEVTCVVVSVSHEDPEVKFNWYVDGVEVHNAKTKPREEQYNSTYRVVSVLTVLHQDWLNGKEYKCKVSNKALPAPIEKTISKAKGQPREPQVYTLPPSREEMTKNQVSLWCLVKGFYPSDIAVEWESNGQPENNYKTTPPVLDSDGSFFLYSKLTVDKSRWQQGNVFSCSVMHEALHNHYTQKSLSLSPGKGGSEGKSSGSGSESKSTGGSAIQLTQSPSSLSASVGDRVTITCRASSSVSYIHWFQQKPGKAPKPLIYATSNLASGVPSRFSGSGSGTDFTLTISSLQPEDFATYYCQQWTSNPPTFGQGTKLEIKGGSEGKSSGSGSESKSTGGSQVQLVQSGAEVKKPGSSVKVSCKASGYTFTSYNMHWVRQAPGQGLEWMGAIYPGNGDTSYAQKFQGRVTITADKSTSTAYMELSSLRSEDTAVYYCARSTYYGGDWYFNVWGQGTLVTVSS
notes: Trispecific IgG1 antibody; HC1/LC form the CD79b Fab; HC2 is CD3 scFv-Fc-linker-CD20 scFv; also called CD79bxCD20xCD3 trispecific; CD9B643 / CD3B2030-N106A-scFv-LH-C20B22
B3: PS3B1391 (bispecific antibody, human IgG1, kappa, L234A L235A)
chain: EIVLTQSPATLSASPGERVTLSCSASSSVSYMNWYQQKPGQAPRRWIYDSSKLASGVPARFSGSGSGRDYTLTISSLEPEDFAVYYCQQWSRNPPTFGGGTKVEIKGGSEGKSSGSGSESKSTGGSQVQLVQSGAEVKKPGSSVKVSCKASGYTFTRSTMHWVKQAPGQGLEWIGYINPSSAYTNYNQKFQGRVTLTADKSTSTAYMELSSLRSEDTAVYYCASPQVHYDYAGFPYWGQGTLVTVSSEPKSSDKTHTCPPCPAPEAAGGPSVFLFPPKPKDTLMISRTPEVTCVVVSVSHEDPEVKFNWYVDGVEVHNAKTKPREEQYNSTYRVVSVLTVLHQDWLNGKEYKCKVSNKALPAPIEKTISKAKGQPREPQVYTLPPSREEMTKNQVSLWCLVKGFYPSDIAVEWESNGQPENNYKTTPPVLDSDGSFFLYSKLTVDKSRWQQGNVFSCSVMHEALHNHYTQKSLSLSPGK
heavy: EVQLVESGGGLVKPGGSLRLSCVASGFTFSFYSMNWVRQAPGKGLDWVSSISSSGNYIYYADSVKGRFTISRDNAKNSLHLHMNSLKAEDTAMYFCARSYSGSYDAFDFWGQGTMVTVSSASTKGPSVFPLAPSSKSTSGGTAALGCLVKDYFPEPVTVSWNSGALTSGVHTFPAVLQSSGLYSLSSVVTVPSSSLGTQTYICNVNHKPSNTKVDKKVEPKSCDKTHTCPPCPAPEAAGGPSVFLFPPKPKDTLMISRTPEVTCVVVSVSHEDPEVKFNWYVDGVEVHNAKTKPREEQYNSTYRVVSVLTVLHQDWLNGKEYKCKVSNKALPAPIEKTISKAKGQPREPQVYTLPPSREEMTKNQVSLSCAVKGFYPSDIAVEWESNGQPENNYKTTPPVLDSDGSFFLVSKLTVDKSRWQQGNVFSCSVMHEALHNRFTQKSLSLSPGK
light: EIVMTQSPGTLSLSPGERATLSCRASQSVSSSFLAWYQQKPGQAPRLLISGASSRATGIPDRFSVSGSGTDFTLTISRLEPEDFAVYYCQQYGVSPWTFGQGTKVEIKRTVAAPSVFIFPPSDEQLKSGTASVVCLLNNFYPREAKVQWKVDNALQSGNSQESVTEQDSKDSTYSLSSTLTLSKADYEKHKVYACEVTHQGLSSPVTKSFNRGEC
notes: HC 1: N-term scFv LH CD3B2030 N106A; HC 2: N-term Fab PSMHB49SC1133_011A11_1; LC1 is given as NA; also called PS3B1391.002

Experiments:
[1] = molecular target: T1, Human CD79b long isoform, recombinant …; test: SPR Biacore 8K, antibody captured by anti-human Fc, CD79b in solution, 25 C, 1:1 Langmuir
Experimental: (§1) General Protocol for SPR Affinity Assessment: Affinity assessment of the bispecific and trispecific constructs against human CD79b were measured using recombinantly expressed extracellular domain of CD79b short and long isoforms (CD9W7.001 and CD9W8.001, respectively) by Surface Plasmon Resonance (SPR) using a Biacore 8 k SPR system (Biacore) at 25° C. in HBSP+ buffer. Cross-reactivity of the same antibody panel was also assessed against cyno and mouse antigens (CD9W1.001 and CD9W105.001, respectively). Briefly, a C1 sensor chip was immobilized with anti-human Fc (target immobilization levels of >400 RU) using vendor recommended amino coupling protocol. The test antibodies were captured through immobilized anti-Fc and was followed by the injection of different CD79b constructs at different concentration series (human CD79b short and long isoforms: 30 nM-0.37 nM at 3-fold dilutions; cyno and mouse CD79b: 3000 nM-37 nM at 3-fold dilutions). The association and dissociation phases were measured for 2 or 3 minutes and 30 minutes, respectively.
(§2) The raw binding sensorgrams were processed using Biacore Insight software (Biacore) by double-referencing and the processed sensorgrams were analyzed for cross-reactivity and fitted to a 1:1 Langmuir model to obtain on-rates, off-rates and affinities.

[2] = molecular target: T2, Human CD79b short isoform, recombinant …; test: as above
Experimental: as §1, §2

[3] = molecular target: T3, Human CD79b, endogenous on diffuse …; test: flow cytometry on HBL-1 cells (endogenous CD79b and CD20; the trispecific also has a CD20 arm)
[4] = molecular target: T3, Human CD79b, endogenous on diffuse …; test: flow cytometry on Carnaval cells (endogenous CD79b and CD20; the trispecific also has a CD20 arm)
[5] = molecular target: T3, Human CD79b, endogenous on diffuse …; test: flow cytometry on OCI-LY10 cells (endogenous CD79b and CD20; the trispecific also has a CD20 arm)
recombinant human PSMA = molecular target: T4, recombinant human PSMA (human, UniProt Q04609 44-750); test: SPR (Biacore 8K), antibody captured on anti-Fc, PSMA in solution; average of 2
T4 construct: also called hu PSMA; prostate-specific membrane antigen
Experimental: (§3) The binding affinity of anti-PSMA to the recombinant human or cynomolgus PSMA was determined by surface plasmon resonance (SPR) using a Biacore 8K instrument (ELN PSMA-00721). The antibodies were captured on a goat anti-Fc antibody-modified C1 chip and titrated with 3-fold serial dilutions of PSMA antigen spanning concentrations of 100 nM to 3.7 nM (human PSMA) or […] 22.2-600 nM for cyno PSMA. The association and dissociation were monitored for 3 and 60 minutes, respectively, using a flow rate of 50 μL/min. Raw binding data was referenced by subtracting the analyte binding signals from blanks and analyzed using a 1:1 Langmuir binding model by the Biacore Insight evaluation software to obtain the kinetics which were used to calculate the binding affinity. The anti-PSMA were captured using an anti-human Fc antibody and the antigens were injected in solution.

[6] = molecular target: T5, recombinant cynomolgus PSMA (cynomolgus, UniProt A0A2K5VNZ0 44-750); test: SPR (Biacore 8K), antibody captured on anti-Fc, PSMA in solution; average of 3
T5 construct: also called cy PSMA; cyno PSMA
Experimental: as §3

T4 sequence (Q04609 44-750 limits assumed): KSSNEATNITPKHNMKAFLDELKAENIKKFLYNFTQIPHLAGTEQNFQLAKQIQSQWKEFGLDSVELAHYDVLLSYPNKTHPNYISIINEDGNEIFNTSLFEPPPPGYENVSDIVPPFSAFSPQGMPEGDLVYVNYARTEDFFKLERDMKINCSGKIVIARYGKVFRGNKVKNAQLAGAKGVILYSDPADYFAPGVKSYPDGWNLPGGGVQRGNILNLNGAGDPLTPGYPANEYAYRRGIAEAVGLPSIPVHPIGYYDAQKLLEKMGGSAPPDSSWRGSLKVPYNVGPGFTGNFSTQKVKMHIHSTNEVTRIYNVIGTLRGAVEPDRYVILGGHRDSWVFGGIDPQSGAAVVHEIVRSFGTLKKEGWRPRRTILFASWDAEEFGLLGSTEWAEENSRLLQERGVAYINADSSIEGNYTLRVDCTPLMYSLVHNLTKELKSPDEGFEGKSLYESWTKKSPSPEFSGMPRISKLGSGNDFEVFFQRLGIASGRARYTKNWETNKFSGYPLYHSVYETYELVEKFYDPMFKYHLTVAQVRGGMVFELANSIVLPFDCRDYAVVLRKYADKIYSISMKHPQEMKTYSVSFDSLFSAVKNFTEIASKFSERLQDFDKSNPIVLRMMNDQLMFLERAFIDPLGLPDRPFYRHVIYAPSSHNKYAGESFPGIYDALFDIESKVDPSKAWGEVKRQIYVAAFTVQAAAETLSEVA

Binder	Kd [1]	Kd [2]	EC50 [3]	EC50 [4]	EC50 [5]	Kd (recombinant human PSMA)	koff (recombinant human PSMA)	kon (recombinant human PSMA)	Kd [6]	koff [6]	kon [6]
B1	0.023 nM	0.39 nM	52 nM	23 nM	66 nM						
B2	0.04 nM	0.27 nM	8 nM	6 nM	2 nM						
B3						0.1 nM	4.8e-05 s⁻¹	480000 M⁻¹ s⁻¹	0.126 nM	1.96e-05 s⁻¹	157000 M⁻¹ s⁻¹
